Experimental findings from paper doi:10.1101/2024.01.05.574393 (bioRxiv, 2024) are described below.

Residue numbers refer to the chain shown, from its start. In names and notes the source's numbering stands.

Sequences and labels used below:
B1: HSPB7ACD C131S (residues 78-162 of isoform 2) (domain or fragment)
chain: not shown
B2: FLNCd24 (domain 24 of filamin C, residues 2630-2724), wild type (domain or fragment)
chain: GSKFSSDASKVVTRGPGLSQAFVGQKNSFTVDCSKAGTNMMMVGVHGPKTPCEEVYVKHMGNRVYNVTYTVKEKGDYILIVKWGDESVPGSPFKVKV
B3: FLNCd24 Y2683E (phospho-mimic, residues 2630-2724) (domain or fragment)
chain: B2 chain with Y56E
B4: FLNCd24 T2677D (phospho-mimic, residues 2630-2724) (domain or fragment)
chain: B2 chain with T50D

Data set [1] has as its target B2. In words: crystal structure.
Data set [2] concerns the molecule itself. In words: native MS.
For data set [3], the target named is HSPB7ΔN (residues 78-175 of isoform 2) (human, UniProt Q9UBY9-2 78-175). Kind of data set: native MS.
Data set [4] deals with the molecule itself. Kind of data set: native MS. The source holds these as a separate data set.

For the molecule B1, the binding result in data set [1] was “binds”. Broadly, the Kd is the free concentration of one partner at which half of the binding sites on the other are occupied at equilibrium, for simple one-to-one binding. Usually stoichiometry N stands for the number of molecules, sites or subunits per partner or assembly. With B2, the equilibrium dissociation constant (Kd) in data set [2] came to 75.9 ± 8.4 nM; in data set [3] it was 6.7 ± 1.4 nM. The “stoichiometry N” value in data set [4] worked out at 2. The molecule B3 gave a Kd in data set [2] of 4050 ± 557 nM. On the same count and under the same terms, next, B4: 8.5 ± 1 nM.
